One assay deals with huCD28 (human, UniProt P10747 19-152, limits assumed). The assay is described as follows: SPR, OAA format. (Surface plasmon resonance follows binding to a sensor surface in real time, without labels.)
Assay [1] addresses T1, Recombinant human/cynomolgus/rhesus macaque CD28 mouse IgG2a Fc fusion protein (Acro Biosystems) (human/cynomolgus/rhesus macaque, UniProt P10747 19-152).
T1 construct: bought; also called huCD28
The assay can be described thus: SPR Biacore T200, CD28-mIgG2a Fc on CM5, construct injected, 1:1 model.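 Note: fc fusion captured by amine coupling, run at 25 °C in HEPES buffer pH 7.4, association 140-500 s then dissociation 600-1200 s, values averaged over three independent runs.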

For assay [2], the target named is T2, Recombinant human CD3 epsilon/delta heterodimer, his tag protein (Acro Biosystems) (human, UniProt P07766 23-126; P04234 22-105).
T2 construct: bought
The assay can be described thus: SPR Biacore T200, CD3 e/d-his on CM5, construct injected, 1:1 model.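 Note: measured at 25 °C in HEPES-buffered saline with EDTA and Tween 20 at pH 7.4, values are means of three independent runs.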
Experimental: All SPR binding experiments were carried out using a BiacoreT200 instrument at 25° C. with 10 mM HEPES, 150 mM NaCl, 3 mM EDTA, and 0.05% Tween 20 at pH 7.4. Recombinant human CD3 epsilon/delta heterodimer, his tag protein (Acro Biosystems) was covalently immobilized on CM5 sensor chips by amine coupling. Purified antibody constructs to be tested were indirectly captured on the sensor chip by binding to the recombinant CD3 protein when injected at 30 μL/min for 140-500 s following a dissociation for 600-1200 s. Resultant kₒₙ, koff and KD values were determined from fitting the sensorgrams using the 1:1 binding model with reported values as the mean of three independent runs.

Changes are numbered by the printed parent chain. Numbers in names are those of the source.

Broadly, the Kd is the concentration at which binding is half-saturated. Broadly, the koff is a measure of how fast the partners let go of each other. The kon is the second-order rate constant of association.

B1: v37878 (antibody, V domains shown)
VH: QVQLQESGPGLVKPSETLSLTCAVSGFSLTSYGVHWIRQPPGKGLEWLGVIWPGGGTNFNSALMSRLTISEDTSKNQVSLKLSSVTAADTAVYYCARDRAYGNYLYAMDYWGQGTLVTVSS
VL: DIQMTQSPSSLSASVGDRVTITCRASESVEYYVTSLMQWYQQKPGKAPKLLIYAASNVDSGVPSRFSGSGSGTDFTLTISSLQPEDIATYYCQQSRAVPFTFGGGTKVEIK
notes: OAA format as v34891; also called huTN228 K1109A (VL) OAA
Take B1: in the assay with huCD28, the “Fold-change from WT” value was determined as 1.93 fold, the Kd was determined as 170 nM, the koff worked out at 0.0117 s⁻¹ and the kon came to 70800 M⁻¹ s⁻¹.

B2: v37879 (antibody, V domains shown)
VH: B1 VH
VL: B1 VL with A97K, V98A
notes: OAA format as v34891; also called huTN228 V1114A (VL) OAA
Consider B2, for which, in the assay with huCD28, the “Fold-change from WT” value amounted to 0.39 fold, the Kd was determined as 34.7 nM, the koff was found to be 0.00174 s⁻¹ and the kon amounted to 50300 M⁻¹ s⁻¹.

B3: v37898 (antibody, V domains shown)
VH: B1 VH
VL: B1 VL with M37L, Q38N, A97K
notes: OAA format as v34891
For B3, in the assay with huCD28, the “Fold-change from WT” value is 0.84 fold; the affinity, expressed as Kd, was 73.7 nM; the koff amounted to 0.00573 s⁻¹; the kon was 77900 M⁻¹ s⁻¹.

B4: v37884 (antibody, V domains shown)
VH: B1 VH with L105I
VL: B1 VL with A97K
notes: OAA format as v34891; also called huTN228 L1112AI (VH) OAA
On to B4, for which, in the assay with huCD28, the “Fold-change from WT” value came out at 1.51 fold, binding was characterised by a dissociation constant (Kd) of 133 nM, the koff turned out to be 0.00993 s⁻¹ and the kon was 76000 M⁻¹ s⁻¹.

B5: v37891 (antibody, V domains shown)
VH: B1 VH with L48I
VL: B1 VL with A97K
notes: OAA format as v34891; also called huTN228 L1053I (VH) OAA
For B5, in the assay with huCD28, the “Fold-change from WT” value turned out to be 0.54 fold, the Kd was 47.7 nM, the koff came to 0.0028 s⁻¹ and the kon amounted to 58800 M⁻¹ s⁻¹.

B6: v37882 (antibody, V domains shown)
VH: B1 VH with S31T
VL: B1 VL with A97K
notes: OAA format as v34891; also called huTN228 S1036T (VH) OAA
Regarding B6, in the assay with huCD28, the “Fold-change from WT” value came out at 0.59 fold, binding was put at a Kd of 51.7 nM, the koff was 0.00311 s⁻¹ and the kon came to 60500 M⁻¹ s⁻¹.

B7: v37888 (antibody, V domains shown)
VH: B1 VH
VL: B1 VL with N57Q, A97K
notes: OAA format as v34891; also called huTN228 N1066Q (VL) OAA
Regarding B7, in the assay with huCD28, the “Fold-change from WT” value is 0.61 fold, the Kd came out at 53.8 nM, the koff was 0.00319 s⁻¹ and the kon was 59200 M⁻¹ s⁻¹.

B8: v37890 (antibody, V domains shown)
VH: B1 VH with A23T
VL: B1 VL with A97K
notes: OAA format as v34891; also called huTN228 A1024T (VH) OAA
Regarding B8, in the assay with huCD28, the “Fold-change from WT” value was determined as 0.66 fold, binding was characterised by a dissociation constant (Kd) of 57.8 nM, the koff worked out at 0.00349 s⁻¹ and the kon was found to be 60800 M⁻¹ s⁻¹.

B9: v37897 (antibody, V domains shown)
VH: B1 VH with V78F
VL: B1 VL with A97K
notes: OAA format as v34891; also called huTN228 V1087F (VH) OAA
For the molecule B9, in the assay with huCD28, the “Fold-change from WT” value was 0.88 fold, the Kd worked out at 77.4 nM, the koff worked out at 0.00487 s⁻¹ and the kon was 63000 M⁻¹ s⁻¹.

B10: v37883 (antibody, V domains shown)
VH: B1 VH with N103Q
VL: B1 VL with A97K
notes: OAA format as v34891; also called huTN228 N1111AQ (VH) OAA
On to B10, for which, in the assay with huCD28, the “Fold-change from WT” value was determined as 3.81 fold, the Kd was found to be 335 nM, the koff is 0.029 s⁻¹ and the kon came to 86800 M⁻¹ s⁻¹.

B11: v37665 (bispecific antibody, human IgG1, kappa, L234A L235A)
heavy 1: not shown
heavy 2: QVQLVESGGGLVQPGGSLRLSCSVSGIDLSSNPMIWVRQAPGKGLQYIGIIDTDGSTYYADWAKGRFTISKDSTTVYLQINSPRAEDTAVYYCARRLHGSSNGYYDDLWGQGTLVTVSSGGGGSGGGGSGGGGSGGGGSDGQMTQSPSSVSASVGDRVTITCQASQSIYSYLSWYQQKPGQRPKLLIYKASTLASGVPSRFSGSGSGTDFTLTISSVQPEDFATYYCQQGYTVTNVDKNTFGGGTKVEIKAAEPKSSDKTHTCPPCPAPEAAGGPSVFLFPPKPKDTLMISRTPEVTCVVVSVSHEDPEVKFNWYVDGVEVHNAKTKPREEQYNSTYRVVSVLTVLHQDWLNGKEYKCKVSNKALPAPIEKTISKAKGQPREPQVYVLPPSRDELTKNQVSLLCLVKGFYPSDIAVEWESNGQPENNYLTWPPVLDSDGSFFLYSKLTVDKSRWQQGNVFSCSVMHEALHNHYTQKSLSLSPG
light: DIQMTQSPSSLSASVGDRVTITCRASESVEYYVTSLMQWYQQKPGKAPKLLIYAASNVDSGVPSRFSGSGSGTDFTLTISSLQPEDIATYYCQQSRKVPFTFGGGTKVEIKRTVAAPSVFIFPPSDEQLKSGTASVVCLLNNFYPREAKVQWKVDNALQSGNSQESVTEQDSKDSTYSLSSTLTLSKADYEKHKVYACEVTHQGLSSPVTKSFNRGEC
notes: 13B08 VH-VL scFv); also called anti-(CLDN18.2xCD28) bispecific control
In the case of B11, in assay [1], the Kd was 25.1 nM, the koff was 0.00224 s⁻¹ and the kon amounted to 89400 M⁻¹ s⁻¹.

B12: v37666 (bispecific antibody, human IgG1, kappa, L234A L235A)
heavy 1: not shown
heavy 2: EPKSSDKTHTCPPCPAPEAAGGPSVFLFPPKPKDTLMISRTPEVTCVVVSVSHEDPEVKFNWYVDGVEVHNAKTKPREEQYNSTYRVVSVLTVLHQDWLNGKEYKCKVSNKALPAPIEKTISKAKGQPREPQVYVLPPSRDELTKNQVSLLCLVKGFYPSDIAVEWESNGQPENNYLTWPPVLDSDGSFFLYSKLTVDKSRWQQGNVFSCSVMHEALHNHYTQKSLSLSPG
light: B11 light
notes: Fc without paratope; also called anti-(CLDN18.2xCD28) bispecific control
With B12, in assay [1], the Kd was 32.4 nM, the koff was 0.00217 s⁻¹ and the kon was 67300 M⁻¹ s⁻¹.

B13: v37664 (bispecific antibody)
heavy: QVQLVESGGGLVQPGGSLRLSCSVSGIDLSSNPMIWVRQAPGKGLQYIGIIDTDGSTYYADWAKGRFTISKDSTTVYLQINSPRAEDTAVYYCARRLHGSSNGYYDDLWGQGTLVTVSSGGGGSGGGGSGGGGSGGGGSDGQMTQSPSSVSASVGDRVTITCQASQSIYSYLSWYQQKPGQRPKLLIYKASTLASGVPSRFSGSGSGTDFTLTISSVQPEDFATYYCQQGYTVTNVDKNTFGGGTKVEIKGGGGSGEVQLVESGGGLVQPGGSLRLSCAASGVTFNYYGMSWIRQAPGKGLEWVASITSSGGRIYYPDSVKGRFTISRENTQKTLYLQMNSLRAEDTAVYYCTLDGRDGWVAYWGQGTLVTVSSASTKGPSVFPLAPSSKSTSGGTAALGCLVKDYFPEPVTVSWNSGALTSGVHTFPAVLQSSGLYSLSSVVTVPSSSLGTQTYICNVNHKPSNTKVDKKVEPKSCDKTHTCPPCPAPEAAGGPSVFLFPPKPKDTLMISRTPEVTCVVVSVSHEDPEVKFNWYVDGVEVHNAKTKPREEQYNSTYRVVSVLTVLHQDWLNGKEYKCKVSNKALPAPIEKTISKAKGQPREPQVYVLPPSRDELTKNQVSLLCLVKGFYPSDIAVEWESNGQPENNYLTWPPVLDSDGSFFLYSKLTVDKSRWQQGNVFSCSVMHEALHNHYTQKSLSLSPG
light: NFMLTQPHSVSESPGKTVTISCKRNTGNIGSNYVNWYQQHEGSSPTTIIYRNDKRPDGVSDRFSGSIDRSSKSASLTISNLKTEDEADYFCQSYSSGFIFGGGTKLTVLGQPKAAPSVTLFPPSSEELQANKATLVCLISDFYPGAVTVAWKADSSPVKAGVETTTPSKQSNNKYAASSYLSLTPEQWKSHRSYSCQVTHEGSTVEKTVAPTECS
Fc: not shown
notes: also called anti-(CLDN18.2xCD3) bispecific control
Consider B13, for which, in assay [2], the Kd worked out at 127 nM, the koff was found to be 0.0228 s⁻¹ and the kon was 180000 M⁻¹ s⁻¹.

B14: v37667 (bispecific antibody)
heavy 1: not shown
heavy 2: B11 heavy 2
light: B13 light
notes: bivalent for CD3; also called 2x1 anti-(CD3xCD3xCLDN18.2) control
As to B14, in assay [2], the Kd came to 5.93 nM, the koff is 0.00778 s⁻¹ and the kon was 1.28e+06 M⁻¹ s⁻¹.

B15: v37669 (bispecific antibody)
heavy 1: EVQLVESGGGLVQPGGSLRLSCAASGVTFNYYGMSWIRQAPGKGLEWVASITSSGGRIYYPDSVKGRFTISRENTQKTLYLQMNSLRAEDTAVYYCTLDGRDGWVAYWGQGTLVTVSSASTKGPSVFPLAPSSKSTSGGTAALGCLVKDYFPEPVTVSWNSGALTSGVHTFPAVLQSSGLYSLSSVVTVPSSSLGTQTYICNVNHKPSNTKVDKKVEPKSCDKTHTCPPCPAPEAAGGPSVFLFPPKPKDTLMISRTPEVTCVVVSVSHEDPEVKFNWYVDGVEVHNAKTKPREEQYNSTYRVVSVLTVLHQDWLNGKEYKCKVSNKALPAPIEKTISKAKGQPREPQVYVYPPSRDELTKNQVSLTCLVKGFYPSDIAVEWESNGQPENNYKTTPPVLDSDGSFALVSKLTVDKSRWQQGNVFSCSVMHEALHNHYTQKSLSLSPGGGGGSGNFMLTQPHSVSESPGKTVTISCKRNTGNIGSNYVNWYQQHEGSSPTTIIYRNDKRPDGVSDRFSGSIDRSSKSASLTISNLKTEDEADYFCQSYSSGFIFGGGTKLTVLGGGGSGGGGSGGGGSGGGGSEVQLVESGGGLVQPGGSLRLSCAASGVTFNYYGMSWIRQAPGKGLEWVASITSSGGRIYYPDSVKGRFTISRENTQKTLYLQMNSLRAEDTAVYYCTLDGRDGWVAYWGQGTLVTVSS
heavy 2: B11 heavy 2
light: B13 light
notes: as for B14
For the molecule B15, in assay [2], the Kd was 4.38 nM, the koff came out at 0.00255 s⁻¹ and the kon is 589000 M⁻¹ s⁻¹.

The record behind these values is patent US20260028403A1 (Zymeworks, published 2026).
